Patent US10662230B2, “Cyclic RGD cell-binding motif and uses thereof” (Spiber Technologies AB, priority 2015, dated 2020)

Columns and labels:
[1] = tested on: Human mesenchymal stem cells (hMSC); assay: Early attachment assay, mesenchymal stem cells on silk films; format: cell-based; conditions: MSC, 1 h adhesion to film
Procedure: Human mesenchymal stem cells (hMSC, Gibco) from bone marrow were grown in culture flasks coated with CELLstart (Gibco) in complete StemPro MSC serum free medium CTS (Gibco) containing […] fibroblast growth factor […] (Gibco) and 2 mM Glutamax (Gibco).
Cells were harvested at passage 3-8, seeded at 20 000/cm^2 and allowed to adhere to the films or controls for 1 h in a cell incubator before gentle washing twice with pre-warmed phosphate buffered saline (PBS) followed by 10 min fixation with 96% ethanol. After three washings in water, cells were stained for 30 min with 0.1% Crystal Violet in H2O. Plates were dried after extensive washing in water.
Attachment and morphology of cells bound to the films obtained in Example 3 were documented by taking micrographs at 2× and 10× magnification in an inverted bright field microscope. The color was then dissolved in 40 μL 20% acetic acid for 10 min, and 35 μL of the solution was transferred to a 384-well plate for optical density measurement at 595 nm (TECAN Infinite M200). Wells with cells fixed without pre-washing was used as positive control. Wells with no cells were used as blank. Experiments were run in hexaplicates and repeated three times. […]

integrin α5β1 = target: T1, integrin α5β1 (Homo sapiens, UniProt P05556+P08648); assay: Engagement of integrin α5β1 in KC (SNAKA-51/HUTS-4 staining); format: cell-based; conditions: KC adhering for 3 h
T1 construct: endogenous in cells; host or cells: human primary keratinocytes (KC)
T1 sequence (P08648 42-894 limits assumed): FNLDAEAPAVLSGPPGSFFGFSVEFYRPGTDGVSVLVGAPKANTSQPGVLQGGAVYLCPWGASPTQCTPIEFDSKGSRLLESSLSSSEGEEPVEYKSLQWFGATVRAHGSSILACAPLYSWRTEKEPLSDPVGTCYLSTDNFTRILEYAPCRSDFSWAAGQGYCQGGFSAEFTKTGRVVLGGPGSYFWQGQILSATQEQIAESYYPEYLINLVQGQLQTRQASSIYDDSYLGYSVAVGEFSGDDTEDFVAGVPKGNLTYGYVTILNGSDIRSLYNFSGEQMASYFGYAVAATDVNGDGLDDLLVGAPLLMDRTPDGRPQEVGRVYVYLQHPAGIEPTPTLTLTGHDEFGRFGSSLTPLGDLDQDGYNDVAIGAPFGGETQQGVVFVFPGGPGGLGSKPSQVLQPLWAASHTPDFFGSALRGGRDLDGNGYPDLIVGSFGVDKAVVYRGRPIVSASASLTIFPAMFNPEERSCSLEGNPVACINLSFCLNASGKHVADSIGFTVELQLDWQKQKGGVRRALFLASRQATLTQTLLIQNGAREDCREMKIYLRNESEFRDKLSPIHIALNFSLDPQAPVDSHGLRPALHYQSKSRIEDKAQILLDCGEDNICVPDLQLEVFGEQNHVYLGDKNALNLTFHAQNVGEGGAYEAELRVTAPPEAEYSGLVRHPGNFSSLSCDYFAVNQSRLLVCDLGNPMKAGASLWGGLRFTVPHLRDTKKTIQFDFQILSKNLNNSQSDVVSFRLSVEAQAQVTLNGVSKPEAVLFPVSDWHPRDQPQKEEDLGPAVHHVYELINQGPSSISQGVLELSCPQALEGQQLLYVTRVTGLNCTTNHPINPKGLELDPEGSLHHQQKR
T1 sequence (P08648 895-1049 partner limits assumed): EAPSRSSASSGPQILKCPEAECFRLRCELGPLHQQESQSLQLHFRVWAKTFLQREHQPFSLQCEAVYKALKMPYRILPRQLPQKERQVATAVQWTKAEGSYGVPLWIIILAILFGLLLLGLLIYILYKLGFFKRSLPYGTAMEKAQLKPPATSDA
T1 sequence (P05556 21-798): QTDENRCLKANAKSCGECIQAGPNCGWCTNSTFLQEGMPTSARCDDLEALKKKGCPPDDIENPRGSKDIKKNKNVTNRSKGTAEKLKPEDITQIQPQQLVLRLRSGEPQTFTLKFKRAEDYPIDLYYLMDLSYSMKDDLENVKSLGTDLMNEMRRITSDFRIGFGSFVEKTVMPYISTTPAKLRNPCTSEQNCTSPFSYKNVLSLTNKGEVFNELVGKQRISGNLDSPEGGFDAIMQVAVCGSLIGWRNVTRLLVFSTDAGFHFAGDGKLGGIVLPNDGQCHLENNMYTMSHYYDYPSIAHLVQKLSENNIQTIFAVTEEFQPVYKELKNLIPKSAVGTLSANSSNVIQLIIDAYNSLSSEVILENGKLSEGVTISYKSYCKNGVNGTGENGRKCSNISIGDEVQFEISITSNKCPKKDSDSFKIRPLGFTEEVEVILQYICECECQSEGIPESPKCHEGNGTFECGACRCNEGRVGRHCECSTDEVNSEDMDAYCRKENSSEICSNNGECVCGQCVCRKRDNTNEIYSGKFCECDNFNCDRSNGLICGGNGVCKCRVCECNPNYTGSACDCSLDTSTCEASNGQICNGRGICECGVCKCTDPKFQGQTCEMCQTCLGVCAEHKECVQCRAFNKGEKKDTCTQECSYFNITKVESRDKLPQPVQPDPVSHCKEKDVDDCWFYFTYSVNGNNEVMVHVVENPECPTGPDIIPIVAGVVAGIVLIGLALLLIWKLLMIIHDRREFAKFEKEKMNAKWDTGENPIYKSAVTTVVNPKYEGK
Procedure: Primary antibody were used at the following concentrations in 1% BSA: mouse anti human vinculin (Sigma V9131) at 9.5 μg/ml, mouse-anti human beta1-integrin (activated conformation, clone HUTS-4) at 3.3 μg/mL, or mouse-anti human alpha5-integrin (ligand bound conformation, clone SNAKA-51) at 2.5 μg/mL, both Millipore.
Since the integrin α5β1 is known to selectively bind to fibronectin, we decided to investigate if this integrin is involved in the binding of KC to FNCC-silk (SEQ ID NO: 13). To do this, we selected two monoclonal antibodies, developed to specifically recognize the ligand bound conformation of α5 integrin (SNAKA-51) and the activated conformation of β1 integrin (HUTS-4), respectively, and used them in combination for staining of KC adhering to FNCC-silk for 3 h, in combination with staining with phalloidin for F-actin, as set out in Examples 6-7.

[2] = Fabrication of cell culture matrices (fiber, film, foam, free-standing film); format: physicochemical
Procedure: Briefly, petri dishes were coated at room temperature with recombinant spider silk solution at a concentration of 0.3 mg/ml to generate films. Foams were made by rapid pipetting of the silk solution, and fibers were formed by gentle wagging in 15 ml tube followed by cutting into smaller pieces.
Free-standing films were prepared by applying of a droplet of protein solution (3 mg/ml) onto a ˜3 mm wide frame of metal wire hanging hooked up in a well of a 96-well plate and allowed to dry over night at 25° C. and 30% rh under sterile conditions.
It was observed that a spider silk protein functionalized with a disulfide-looped RGD motif self-assembles into stable matrices. As shown by the micrographs in FIG. 2a, the FNCC-4RepCT (SEQ ID NO: 13) protein could be presented as matrices in the format of fiber (upper), film (middle) and free standing film (lower). Scale bars in FIG. 2a indicate 500 μm (upper & middle) and 1000 μm (lower). […] The smooth film formats (casted and free-standing) were used in the subsequent cell adhesion experiments to rule out the effects of matrix morphology.

HaCaT Keratinocytes = assay: Cell culture on FNCC silk coatings; format: cell-based; conditions: coating 0.1 mg/ml
Procedure: (§1) After purification, solutions of FNCC-silk protein (SEQ ID NO: 13) were used to coat cell culture plates (Sarstedt, hydrophobic plates for suspension cells). Briefly, the protein solutions were diluted to 0.1 mg/ml in Tris buffer, and allowed to incubate at room temperature for 30 minutes before removal and wash.
(§2) Cells were harvested using trypsination (TrpLE) and seeded onto the FNcc-silk coatings at suitable cell density (3-10 000 cells/cm2). Cell growth was monitored with Alamar Blue cell viability assay (Molecular Probes) regularly (every 2-3 day). At the end point, after 7-14 days, Live/dead staining was performed.

[3] = tested on: Human Dermal Microvascular Endothelial Cells; assay: Cell culture on FNCC silk coatings; format: cell-based; conditions: coating 0.1 mg/ml
Procedure: as §1, §2

Human Dermal fibroblasts = assay: Cell culture on FNCC silk coatings; format: cell-based; conditions: coating 0.1 mg/ml
Procedure: as §1, §2

[4] = tested on: Human Mesenchymal stem cells; assay: Cell culture on FNCC silk coatings; format: cell-based; conditions: coating 0.1 mg/ml
Procedure: as §1, §2

[5] = tested on: Human Skeletal Muscle Satellite Cells; assay: Cell culture on FNCC silk coatings; format: cell-based; conditions: coating 0.1 mg/ml
Procedure: as §1, §2

[6] = tested on: MIN6-m9 pancreatic cell line; assay: Cell culture on FNCC silk coatings; format: cell-based; conditions: coating 0.1 mg/ml
Procedure: as §1, §2

[7] = tested on: Mouse Mesenchymal stem cells; assay: Cell culture on FNCC silk coatings; format: cell-based; conditions: coating 0.1 mg/ml
Procedure: as §1, §2

B1: FNCC-silk: recombinant spider silk protein 4RepCT with N-terminal cysteine-looped RGD motif CTGRGDSPAC (SEQ ID NO: 10) (protein)
chain: GPNSCTGRGDSPACGSASGQGGYGGLGQGGYGQGAGSSAAAAAAAAAAAAGGQGGQGQGGYGQGSGGSAAAAAAAAAAAAAAAGRGQGGYGQGSGGNAAAAAAAAAAAAAAAGQGGQGGYGRQSQGAGSAAAAAAAAAAAAAAGSGQGGYGGQGQGGYGQSSASASAAASAASTVANSVSRLSSPSAVSRVSSAVSSLVSNGQVNMAALPNIISNISSSVSASAPGASGCEVIVQALLEVITALVQIVSSSSVGYINPSAVNQITNVVANAMAQVMG
modifications: cyclic disulfide loop; Fusion protein; DISULFID (5)..(14)
attachment seen in micrographs ([1]; crystal violet staining): clear improvement of attachment is seen on the FNCC films compared to both RGD and WT
OD of crystal violet dissolved from adhered cells (number of bound cells) ([1]; seeding 20 000/cm2, serum-free): significantly more cells had bound to the FNCC-silk after 1 h compared to WT silk
staining for ligand bound α5 integrin and activated β1 integrin (integrin α5β1): week but distinct staining pattern resembling the pattern seen when staining for vinculin
formation of free-standing films [2]: possible to form free-standing films
stability and integrity of fibers, film and foam [2]: higher stability and integrity than noted for linear RGD silk proteins (RGD-4RepCT, SEQ ID NO: 16) and WT silk proteins
growth profile (Alamar Blue) (HaCaT Keratinocytes; 7-14 days): positive growth profile
viable cells at the end point (Live/dead staining) (HaCaT Keratinocytes; after 7-14 days): > 80%
growth profile (Alamar Blue) ([3]; 7-14 days): positive growth profile
viable cells at the end point (Live/dead staining) ([3]; after 7-14 days): > 80%
growth profile (Alamar Blue) (Human Dermal fibroblasts; 7-14 days): positive growth profile
viable cells at the end point (Live/dead staining) (Human Dermal fibroblasts; after 7-14 days): > 80%
growth profile (Alamar Blue) ([4]; 7-14 days): positive growth profile
viable cells at the end point (Live/dead staining) ([4]; after 7-14 days): > 80%
growth profile (Alamar Blue) ([5]; 7-14 days): positive growth profile
viable cells at the end point (Live/dead staining) ([5]; after 7-14 days): > 80%
growth profile (Alamar Blue) ([6]; 7-14 days): positive growth profile
viable cells at the end point (Live/dead staining) ([6]; after 7-14 days): > 80%
growth profile (Alamar Blue) ([7]; 7-14 days): positive growth profile
viable cells at the end point (Live/dead staining) ([7]; after 7-14 days): > 80%
